T1: Mouse Mfsd2a, wild type (endogenous on brain endothelial cells of wildtype mice); stably expressed in HEK293 … (mouse, UniProt Q9DA75 1-534)
T1 construct: whole, on cells; also called endogenous Mfsd2a
T1 sequence (looked up): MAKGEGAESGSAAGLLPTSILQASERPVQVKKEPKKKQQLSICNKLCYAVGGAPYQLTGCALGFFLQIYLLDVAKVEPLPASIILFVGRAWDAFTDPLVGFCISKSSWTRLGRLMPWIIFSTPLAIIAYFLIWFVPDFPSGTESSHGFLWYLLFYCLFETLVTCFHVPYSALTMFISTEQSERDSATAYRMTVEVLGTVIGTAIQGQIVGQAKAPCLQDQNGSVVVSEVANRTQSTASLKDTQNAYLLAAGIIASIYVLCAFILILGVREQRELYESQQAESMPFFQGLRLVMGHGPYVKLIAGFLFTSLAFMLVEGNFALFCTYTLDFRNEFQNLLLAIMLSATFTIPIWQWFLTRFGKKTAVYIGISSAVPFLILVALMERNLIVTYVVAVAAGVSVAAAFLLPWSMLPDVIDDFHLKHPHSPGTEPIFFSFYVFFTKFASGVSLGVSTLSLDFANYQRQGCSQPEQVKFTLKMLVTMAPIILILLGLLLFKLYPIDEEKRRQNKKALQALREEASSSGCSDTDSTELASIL

T2: Mus musculus Mfsd2a with a single point mutation (Q67H), purified in LMNG/CHS/GDN detergent (Mus musculus, UniProt Q9DA75 1-534, limits assumed)
T2 construct: Membrane transporter expressed in HEK293S cells and purified in detergent; also called mouse Mfsd2a Q67H
T2 sequence (looked up): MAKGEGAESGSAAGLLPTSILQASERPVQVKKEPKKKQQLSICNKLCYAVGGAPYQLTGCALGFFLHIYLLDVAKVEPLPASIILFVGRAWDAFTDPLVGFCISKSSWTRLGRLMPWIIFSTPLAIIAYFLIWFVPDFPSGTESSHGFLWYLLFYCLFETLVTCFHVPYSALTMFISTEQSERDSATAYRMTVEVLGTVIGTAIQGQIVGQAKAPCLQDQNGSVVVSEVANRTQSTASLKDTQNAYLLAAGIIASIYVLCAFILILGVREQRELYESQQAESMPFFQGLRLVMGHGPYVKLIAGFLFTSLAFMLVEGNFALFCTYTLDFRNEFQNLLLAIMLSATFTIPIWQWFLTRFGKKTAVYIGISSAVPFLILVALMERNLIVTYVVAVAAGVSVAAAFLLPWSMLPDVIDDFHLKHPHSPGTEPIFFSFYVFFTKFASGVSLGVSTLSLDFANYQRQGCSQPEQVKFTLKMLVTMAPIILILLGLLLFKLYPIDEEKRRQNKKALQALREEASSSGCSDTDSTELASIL


Experiments:
[1] = biological target: T1, Mouse Mfsd2a, wild type (endogenous on …); test: IV injection into adult mice (10 ug/ml), brain sections stained with fluorescent secondary antibody
Description: The specificity of the antibody described herein (D1, with CDRs of SEQ ID NOs: 1-6) was tested. IV-injection of D1 antibody or control antibody was IV injected at 10 ug/ml to adult mice. The antibodies were permitted to circulate for 15 minutes, followed by 10 ml PBS perfusion and fixation. Brains were sectioned and stained with fluorescent labeled secondary antibody. […] It specifically binds to the endogenous Mfsd2a that is expressed on the luminal side of the brain endothelial cell plasma membrane in the wildtype mice, absence in the Mfsd2a knockout mice. Control antibody injected animals show no staining.

[2] = biological target: T2, Mus musculus Mfsd2a with a single point …; test: cryo-EM of the complex, scFv as fiducial mark
Text: Mouse Mfsd2a was over-expressed in HEK293 cells and purified for structural studies. A fortuitous loss-of-function single point mutation Q67H (FIG. 6D) was identified that presumably arrests the transporter in an outward-facing conformation based on its location near the typical extracellular gate area in MFS transporters. It was theorized that this might reduce conformational heterogeneity and selected this variant for structural studies. The purified protein was biochemically stable and appeared monodisperse on size exclusion chromatography (FIG. 6A). To obtain the most homogenous samples for cryo-EM studies, the proteins were screened after being purified under various conditions. Mfsd2a purified in lauryl maltose neopentyl glycol/cholesteryl hemisuccinate/glycol-diosgenin (LMNG/CHS/GDN) detergent mixture was selected for further structural studies as particles appeared to be homogeneous in size and shape. Since Mfsd2a is small in size (59 kDa) with few features outside the micelle, it presents challenges for cryo-EM studies. To aid the particle alignment, we used a single-chain variable fragment (scFv) of antibody that binds to the extracellular side of Mfsd2a as a fiducial mark. This strategy permitted determination of the cryo-EM structure of Mfsd2a at 3.5 Å resolution (FIG. 1B; FIGS. 7A-7F).

| Binder | binding result [1] | binding result [2] |
| --- | --- | --- |
| D1 antibody (with CDRs of SEQ ID NOs: 1-6) (antibody, V domains shown) VH: AVTLDESGGGLQTPKGGLSLVCKASGFTFSSYDMAWVRQAPGKGLEWVAGITSTGSYTNYGAAVKGRATISRDNGQSTVRLQLNSLRAEDTATYFCAKSSFGCPYSCWYDIAGSIDAWGHGTEVIVSS VL: ALTQPSSVSANPGETVKITCSGARYGYGWYQQKSPGSALVTLIYANNIRPSAIPSRFSGSKSGSTATLTITGVRAEDEAVYYCGNEDSITYAAFGAGTTLTVL | binds | – |
| Anti-Mfsd2a scFv (ScFv of SEQ ID NO: 7) (scFv, Isolated by phage display from chickens immunized with lipoparticles containing mouse Mfsd2a; Expressed as an scFv-Fc fusion with a human Fc; the scFv fragment was released by papain cleavage and purified by ion exchange; also called single-chain variable fragment) scFv: QPSSVSANPGETVKITCSGARYGYGWYQQKSPGSALVTLIYANNIRPSAIPSRFSGSKSGSTATLTITGVRAEDEAVYYCGNEDSITYAAFGAGTTLTVLGGSSRSSGGGGSSGGGGSAVTLDESGGGLQTPKGGLSLVCKASGFTFSSYDMAWVRQAPGKGLEWVAGITSTGSYTNYGAAVKGRATISRDNGQSTVRLQLNSLRAEDTATYFCAKSSFGCPYSCWYDIAGSIDAWGHGTEVIVS | – | binds |

Source: patent US20240117033A1 (Harvard, published 2024)
